In IntAct's records for PubMed 11069292:

B1: Transcription factor PIF3 (Arabidopsis thaliana (Mouse-ear cress)), O80536 (parent)
chain: MPLFELFRLTKAKLESAQDRNPSPPVDEVVELVWENGQISTQSQSSRSRNIPPPQANSSRAREIGNGSKTTMVDEIPMSVPSLMTGLSQDDDFVPWLNHHPSLDGYCSDFLRDVSSPVTVNEQESDMAVNQTAFPLFQRRKDGNESAPAASSSQYNGFQSHSLYGSDRARDLPSQQTNPDRFTQTQEPLITSNKPSLVNFSHFLRPATFAKTTNNNLHDTKEKSPQSPPNVFQTRVLGAKDSEDKVLNESVASATPKDNQKACLISEDSCRKDQESEKAVVCSSVGSGNSLDGPSESPSLSLKRKHSNIQDIDCHSEDVEEESGDGRKEAGPSRTGLGSKRSRSAEVHNLSERRRRDRINEKMRALQELIPNCNKVDKASMLDEAIEYLKSLQLQVQIMSMASGYYLPPAVMFPPGMGHYPAAAAAMAMGMGMPYAMGLPDLSRGGSSVNHGPQFQVSGMQQQPVAMGIPRVSGGGIFAGSSTIGNGSTRDLSGSKDQTTTNNNSNLKPIKRKQGSSDQFCGSS

Variants of: B1
Details: with phyb_arath PHYB

effect of a mutation on the interaction	Variant
decreasing interaction	MPLFELFRLTKAKLESAQDRNPSPPVDEVVELVWENGQISTQSQSSRSRNIPPPQANSSRAREIGNGSKTTMVDEIPMSVPSLMTGLSQDDDFVPWLNHHPSLDGYCSDFLRDVSSPVTVNEQESDMAVNQTAFPLFQRRKDGNESAPAASSSQYNGFQSHSLYVSDRARDLPSQQTNPDRFTQTQEPLITSNKPSLVNFSHFLRPATFAKTTNNNLHDTKEKSPQSPPNVFQTRVLGAKDSEDKVLNESVASATPKDNQKACLISEDSCRKDQESEKAVVCSSVGSGNSLDGPSESPSLSLKRKHSNIQDIDCHSEDVEEESGDGRKEAGPSRTGLGSKRSRSAEVHNLSERRRRDRINEKMRALQELIPNCNKVDKASMLDEAIEYLKSLQLQVQIMSMASGYYLPPAVMFPPGMGHYPAAAAAMAMGMGMPYAMGLPDLSRGGSSVNHGPQFQVSGMQQQPVAMGIPRVSGGGIFAGSSTIGNGSTRDLSGSKDQTTTNNNSNLKPIKRKQGSSDQFCGSS [G165V]
